Experimental data taken from PMC9110474.

Legend:
[1] = target: TOM complex (translocase of the mitochondrial outer membrane), human, endogenous core complex (human (endogenous in HeLa or U2OS)) (UniProt O96008)
[2] = target: TOM complex (translocase of the mitochondrial outer membrane), human, endogenous core complex (human (endogenous in HeLa or U2OS)) (UniProt O96008); assay: native gel or EMSA; competition: mitochondria preincubated on ice for 10 min with 20 µg pSu9-DHFR-His, 1 mM methotrexate and 1 mM NADPH, depolarized, then import of radiolabeled PINK1; BN-PAGE, 700 kDa species quantified (clogger and TOM complex)

**Q.** How did the integration of radiolabeled TOM40 into the MOM of mitochondria preincubated with pSu9-DHFR, % of untreated mitochondria [1] turn out when pSu9-DHFR-His was run?
**A.** Its integration of radiolabeled TOM40 into the MOM of mitochondria preincubated with pSu9-DHFR, % of untreated mitochondria is 60%.

**Q.** And the PINK1 association with the TOM complex left with pSu9-DHFR, % of control [2]?
**A.** The PINK1 association with the TOM complex left with pSu9-DHFR, % of control was < 40%.
